In publication PMC10872586 (Cell reports, 2023):

Columns and labels:
mini-HA #4900 protein = mini-HA #4900 protein (Designed influenza A H1 HA stem #4900 …, stabilised, biotin at the BirA biotinylation site, conjugated to streptavidin-PE (for the yeast display assays only)); experiment: BLI; settings: both partners purified
[1] = target: HA protein from H1N1 A/Solomon Islands/3/2006 (Influenza A virus (A/Solomon …, UniProt A7Y8I1, strain)); experiment: BLI; settings: both partners purified

| Binder | binding result [1] | other results |
| --- | --- | --- |
| CR9114 Fab (positive control) (Fab, V domains shown, source: Expi293F, co-transfected, purified (CaptureSelect CH1-XL)) VH: QVQLVQSGAEVKKPGSSVKVSCKSSGGTSNNYAISWVRQAPGQGLDWMGGISPIFGSTAYAQKFQGRVTISADIFSNTAYMELNSLTSEDTAVYFCARHGNYYYYSGMDVWGQGTTVTVSS VL: QSALTQPPAVSGTPGQRVTISCSGSDSNIGRRSVNWYQQFPGTAPKLLIYSNDQRPSVVPDRFSGSKSGTSASLAISGLQSEDEAEYYCAAWDDSLKGAVFGGGTQLTVL |  | Kd (mini-HA #4900 protein): 0.69 nM |
| CR9114 gHC Fab VL A96W (Fab, V domains shown, Kabat numbering; source: Expi293F, co-transfected, purified (CaptureSelect CH1-XL)) VH: QVQLVQSGAEVKKPGSSVKVSCKASGGTFSSYAISWVRQAPGQGLEWMGGIIPIFGTANYAQKFQGRVTITADKSTSTAYMELSSLRSEDTAVYYCARHGNYYYYYGMDVWGQGTTVTVSS VL: SYVLTQPPAVSGTPGQRVTISCSGSDSNIGRRSVNWYQQFPGTAPKLLIYSNDQRPSVVPDRFSGSKSGTSASLAISGLQSEDEAEYYCAAWDDSLKGWVFGGGTQLTVL | no binding (tested: 300 nM) |  |
| CR9114 gHC Fab VL W91A (Fab, V domains shown, Kabat numbering; source: Expi293F, co-transfected, purified (CaptureSelect CH1-XL)) VH: QVQLVQSGAEVKKPGSSVKVSCKASGGTFSSYAISWVRQAPGQGLEWMGGIIPIFGTANYAQKFQGRVTITADKSTSTAYMELSSLRSEDTAVYYCARHGNYYYYYGMDVWGQGTTVTVSS VL: SYVLTQPPAVSGTPGQRVTISCSGSDSNIGRRSVNWYQQFPGTAPKLLIYSNDQRPSVVPDRFSGSKSGTSASLAISGLQSEDEAEYYCAAADDSLKGAVFGGGTQLTVL | no binding (tested: 300 nM) |  |
| CR9114 gHC Fab VL A96F (Fab, V domains shown, Kabat numbering; source: Expi293F, co-transfected, purified (CaptureSelect CH1-XL)) VH: QVQLVQSGAEVKKPGSSVKVSCKASGGTFSSYAISWVRQAPGQGLEWMGGIIPIFGTANYAQKFQGRVTITADKSTSTAYMELSSLRSEDTAVYYCARHGNYYYYYGMDVWGQGTTVTVSS VL: SYVLTQPPAVSGTPGQRVTISCSGSDSNIGRRSVNWYQQFPGTAPKLLIYSNDQRPSVVPDRFSGSKSGTSASLAISGLQSEDEAEYYCAAWDDSLKGFVFGGGTQLTVL | no binding (tested: 300 nM) |  |
| CR9114 with germline heavy chain, Fab (Fab, V domains shown, also called CR9114 gHC; WT; source: Expi293F, co-transfected, purified (CaptureSelect CH1-XL)) VH: QVQLVQSGAEVKKPGSSVKVSCKASGGTFSSYAISWVRQAPGQGLEWMGGIIPIFGTANYAQKFQGRVTITADKSTSTAYMELSSLRSEDTAVYYCARHGNYYYYYGMDVWGQGTTVTVSS VL: SYVLTQPPAVSGTPGQRVTISCSGSDSNIGRRSVNWYQQFPGTAPKLLIYSNDQRPSVVPDRFSGSKSGTSASLAISGLQSEDEAEYYCAAWDDSLKGAVFGGGTQLTVL |  | Kd [1]: 2600 nM |
| CR9114 gHC Fab VL W91T (Fab, V domains shown, Kabat numbering; source: Expi293F, co-transfected, purified (CaptureSelect CH1-XL)) VH: QVQLVQSGAEVKKPGSSVKVSCKASGGTFSSYAISWVRQAPGQGLEWMGGIIPIFGTANYAQKFQGRVTITADKSTSTAYMELSSLRSEDTAVYYCARHGNYYYYYGMDVWGQGTTVTVSS VL: SYVLTQPPAVSGTPGQRVTISCSGSDSNIGRRSVNWYQQFPGTAPKLLIYSNDQRPSVVPDRFSGSKSGTSASLAISGLQSEDEAEYYCAATDDSLKGAVFGGGTQLTVL | no binding (tested: 300 nM) |  |
| CR9114 gHC Fab VL W91R (Fab, V domains shown, Kabat numbering; source: Expi293F, co-transfected, purified (CaptureSelect CH1-XL)) VH: QVQLVQSGAEVKKPGSSVKVSCKASGGTFSSYAISWVRQAPGQGLEWMGGIIPIFGTANYAQKFQGRVTITADKSTSTAYMELSSLRSEDTAVYYCARHGNYYYYYGMDVWGQGTTVTVSS VL: SYVLTQPPAVSGTPGQRVTISCSGSDSNIGRRSVNWYQQFPGTAPKLLIYSNDQRPSVVPDRFSGSKSGTSASLAISGLQSEDEAEYYCAARDDSLKGAVFGGGTQLTVL | no binding (tested: 300 nM) |  |
| CR9114 gHC Fab VL A96Y (Fab, V domains shown, Kabat numbering; source: Expi293F, co-transfected, purified (CaptureSelect CH1-XL)) VH: QVQLVQSGAEVKKPGSSVKVSCKASGGTFSSYAISWVRQAPGQGLEWMGGIIPIFGTANYAQKFQGRVTITADKSTSTAYMELSSLRSEDTAVYYCARHGNYYYYYGMDVWGQGTTVTVSS VL: SYVLTQPPAVSGTPGQRVTISCSGSDSNIGRRSVNWYQQFPGTAPKLLIYSNDQRPSVVPDRFSGSKSGTSASLAISGLQSEDEAEYYCAAWDDSLKGYVFGGGTQLTVL | no binding (tested: 300 nM) |  |
